Experimental data reported in patent US20220119534A1 (DRAGONFLY THERAPEUTICS, published 2022).
Where two headings read alike, the source gives them in different places.

Legend:
[1] = target: T1, cynomolgus CLEC12A expressed on RMA cells (cynomolgus monkey, UniProt A0A2K5WXQ4 7-271); experiment: flow cytometry, RMA-cCLEC12A, hybridoma supernatant
T1 construct: whole, on cells; also called cCLEC12A isogenic cell line
T1 sequence: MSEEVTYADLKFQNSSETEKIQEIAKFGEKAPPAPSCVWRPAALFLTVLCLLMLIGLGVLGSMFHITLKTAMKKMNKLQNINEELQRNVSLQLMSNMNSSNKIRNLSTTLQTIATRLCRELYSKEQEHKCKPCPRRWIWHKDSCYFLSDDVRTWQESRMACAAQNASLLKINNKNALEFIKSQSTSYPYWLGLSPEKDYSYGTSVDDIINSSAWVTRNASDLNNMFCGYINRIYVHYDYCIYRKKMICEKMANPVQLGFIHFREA
Method: Briefly, RMA cells were transducted with a retroviral vector encoding cCLEC12A or hCLEC12A. […] 100,000 RMA, REH or SEM cells were added per well of a 96 well round bottom plate. Cells were spun down and the pellet was gently dissociated by vortexing. 100 μL of Zombie live/dead dye (PBS+1:2000 dye) were added per well and incubated in the dark at room temperature for 20 minutes. Cells were washed with 200 μL of FACS buffer (PBS+2% FBS). 50 μL of hybridoma supernatants were added to the washed cells and the mixtures were incubated for 30 minutes on ice in the dark. Cells were washed twice with FACS buffer and then 50 μL of anti-mouse Fc-PE secondary reagent (1:200 dilution) were added and incubated for 20 minutes on ice in the dark. After the incubation, the cells were washed and then fixed with 50 μL of 4% paraformaldehyde for 15 minutes on ice. The fixed cells were washed with FACS buffer, resuspended in 200 μL FACS buffer, and stored at 4° C. until ready for acquisition. The samples of cells resuspended in FACS buffer were run on BD FACSCelesta equipped with an HTS (high throughput sampler) to determine the binding affinities of the antibodies to isogenic RMA cells expressing CLEC12A and the U937 AML cancer cell line.

[2] = target: T2, recombinant cynomolgus CLEC12A-His (cynomolgus monkey, UniProt A0A2K5WXQ4 71-271); experiment: SPR, purified murine subclone mAb and Cyno CLEC12A-His
T2 construct: also called cCLEC12A-His; cCLEC12A
T2 sequence: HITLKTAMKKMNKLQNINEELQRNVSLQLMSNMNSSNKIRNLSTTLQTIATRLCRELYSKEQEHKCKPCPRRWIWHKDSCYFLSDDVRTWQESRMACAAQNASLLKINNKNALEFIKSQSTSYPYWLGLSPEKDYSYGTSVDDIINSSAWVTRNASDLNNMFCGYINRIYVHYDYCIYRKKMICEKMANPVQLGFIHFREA

[3] = target: T3, human CLEC12A expressed on cells (human, UniProt Q5QGZ9 1-265); experiment: flow cytometry, PL21 cells
T3 construct: Transduced isogenic cells or endogenous expression on AML cells; also called RMA-hCLEC12A; Ba/F3-hCLEC12A
T3 sequence: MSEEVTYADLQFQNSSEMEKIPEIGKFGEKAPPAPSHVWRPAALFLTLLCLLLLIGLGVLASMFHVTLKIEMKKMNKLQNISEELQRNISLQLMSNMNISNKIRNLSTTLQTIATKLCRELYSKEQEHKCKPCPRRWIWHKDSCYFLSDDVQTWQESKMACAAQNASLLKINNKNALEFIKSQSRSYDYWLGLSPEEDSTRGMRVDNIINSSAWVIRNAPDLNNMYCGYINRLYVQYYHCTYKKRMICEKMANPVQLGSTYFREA
Method: The ability of the eight purified subcloned mAbs to bind to CLEC12A expressing cells was assessed by FACS analysis with human CLEC12A-positive PL21 cancer cell line.

[4] = target: T4, recombinant human CLEC12A-His (human, UniProt Q5QGZ9 65-265); experiment: SPR, purified murine mAb
T4 construct: also called hCLEC12A-His; hCLEC12A
T4 sequence: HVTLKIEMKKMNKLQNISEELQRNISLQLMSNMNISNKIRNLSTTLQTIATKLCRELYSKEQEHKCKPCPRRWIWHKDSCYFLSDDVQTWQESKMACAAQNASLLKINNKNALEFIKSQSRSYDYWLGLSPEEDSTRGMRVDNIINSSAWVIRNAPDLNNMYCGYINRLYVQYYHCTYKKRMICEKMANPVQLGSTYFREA

[5] = target: T4, recombinant human CLEC12A-His; experiment: SPR, CLEC12A binding
[6] = target: T3, human CLEC12A expressed on cells; experiment: flow cytometry (gMFI) on CLEC12A+ PL-21 AML cells
[7] = target: T2, recombinant cynomolgus CLEC12A-His; experiment: SPR, purified murine subclone mAb and Cyno CLEC12A-His; remark: listed apart in the source
[8] = target: T4, recombinant human CLEC12A-His; experiment: SPR screening, fully purified mAb
de-sialylated hCLEC12A = target: T5, de-sialylated hCLEC12A (human, UniProt Q5QGZ9 65-265, terminal sialic acids removed (neuraminidase)); experiment: SPR
T5 construct: also called De-sialylated CLEC12A
T5 sequence: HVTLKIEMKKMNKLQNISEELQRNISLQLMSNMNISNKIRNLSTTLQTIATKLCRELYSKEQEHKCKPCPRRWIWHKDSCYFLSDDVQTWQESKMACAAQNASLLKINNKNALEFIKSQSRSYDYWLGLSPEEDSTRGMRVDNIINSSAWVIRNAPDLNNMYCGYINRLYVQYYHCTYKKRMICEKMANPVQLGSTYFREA

de-glycosylated hCLEC12A = target: T6, de-glycosylated hCLEC12A (human, UniProt Q5QGZ9 65-265, N-linked glycans removed (PNGase F)); experiment: SPR
T6 construct: also called PNGase-treated hCLEC12A; De-glycosylated CLEC12A
T6 sequence: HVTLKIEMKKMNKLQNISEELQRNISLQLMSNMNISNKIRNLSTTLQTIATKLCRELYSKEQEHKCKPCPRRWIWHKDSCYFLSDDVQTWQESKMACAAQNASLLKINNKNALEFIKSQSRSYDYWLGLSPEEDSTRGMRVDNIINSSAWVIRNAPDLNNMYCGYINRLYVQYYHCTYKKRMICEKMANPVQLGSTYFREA

[9] = target: T4, recombinant human CLEC12A-His; experiment: SPR
[10] = target: T4, recombinant human CLEC12A-His; experiment: SPR; sensorgrams of a CLEC12A concentration series with fit overlays (response up to about 18, time axis 0 to about 900)
[11] = target: T3, human CLEC12A expressed on cells; experiment: flow cytometry (MFI) on CLEC12A+ PL-21 AML cells, about 0.2 to 130 nM, plateau about 250 MFI; the molecule is assigned by panel order and legend paragraph 296
[12] = target: T2, recombinant cynomolgus CLEC12A-His; experiment: SPR, purified murine subclone mAb and Cyno CLEC12A-His; remark: listed apart in the source
[13] = target: T3, human CLEC12A expressed on cells; experiment: flow cytometry on PL21 cells, surface-bound molecule after 2 h at 37 C relative to 20 min on ice
Method: Human cancer cell lines HL60 and PL21 expressing human CLEC12A were used to assess surface retention of CLEC12A-TriNKETs after incubation with cells. PL21 or HL60 cells in duplicate plates were incubated with TriNKETs or mAbs as indicated. The first plate was moved to 37° C. for two hours, whereas the second plate was incubated on ice for 20 minutes. After the respective incubation times, cells were washed. Surface bound TriNKET or mAb was detected using a fluorescent secondary antibody for flow cytometry.
100,000 cells were seeded per well into duplicate 96-well plates for FACS staining. Cells were washed with FACS buffer. Test articles were diluted to 40 nM and were added to each of the duplicate plates. The first plate was incubated on ice for 2 hours, while the second plate was moved to 37° C. for two hours. After the incubation, cells were washed with PBS and cells were incubated in a 1:2000 dilution of live/dead dye in PBS for 15 minutes, then washed with FACS buffer. Anti-human IgG-Fc secondary antibody was diluted into FACS buffer, and 50 μl was added per well for detection of the bound TriNKETs or mAbs. Cells were incubated for 20 minutes on ice, then washed with FACS buffer. 50 μl of fixation buffer was added to each well, and cells were incubated for 10 minutes at room temperature. […] Surface retention was then calculated as follows:

B1: 9E4.B7 (antibody, V domains shown)
VH: EVQLQESGAELMKPGASVKISCRTTGYTFSTYWIEWVKQRPGRGPEWIGELFPGNSDTTLNEKFTGKATFTADSSSNTAYMQLSSLTSEDSAVYYCARSGYYGSSLDYWGQGTTLTVSS
VL: GIVMTQSPASLSASVGETVTITCRAGENIHSYLAWYQQKQGKSPQLLVYNAKTLAEGVPSRFSGSGSGTQFSLKINSLQPEDFGSYYCQHHYGTPRTFGGGTKLEIK
notes: Murine mAb; also called 9E04
[1]
  binding result: no binding
[2]
  binding result: no binding
[3]
  EC50: 0.64 nM
  Max MFI: 186 MFI

B2: 16B8.C8 (antibody, V domains shown)
VH: EVQLQESGPGLVQPSQSLSITCTVSGFSLTNYGLHWVRQSPGKGLEWLGVIWSGGKTDYNTPFKSRLSISKDISKNQVFFKMNSLQPNDTAIYFCAKYDYDDSLDYWGQGTSVTVSS
VL: DIQMNQSPSSLSASLGDTIAITCHASQNINFWLSWYQQKPGNIPKLLIYEASNLHTGVPSRFSGSGSGTRFTLTISSLQPEDIATYYCQQSHSYPLTFGQGTKLEIK
notes: Murine mAb; also called 16B08; m16B8.C8
[4]
  Kd: 0.01 nM
  koff: 4.44e-05 s⁻¹
  kon: 4.05e+06 M⁻¹ s⁻¹
[1]
  binding result: no binding
[5]
  Kd: ≤ 0.011 nM
[6]
  EC50: 0.2 nM
[7]
  binding result: no binding
[8]
  Kd: 0.008 nM
  koff: 2.35e-05 s⁻¹
  kon: 3.03e+06 M⁻¹ s⁻¹
[3]
  EC50: 0.18 nM
  Max MFI: 300 MFI
de-sialylated hCLEC12A
  Kd: 0.007 nM
  koff: 3.62e-05 s⁻¹
  kon: 5.25e+06 M⁻¹ s⁻¹
de-glycosylated hCLEC12A
  Kd: 0.011 nM
  koff: 4.45e-05 s⁻¹
  kon: 4.26e+06 M⁻¹ s⁻¹
[9]
  Kd: 0.012 nM
  koff: 4.7e-05 s⁻¹
  kon: 4.05e+06 M⁻¹ s⁻¹

B3: 9F11.B7 (antibody, V domains shown)
VH: EVQLQESGGGLVQPGGSRKLSCAASGFTFNSFGMHWVRQAPEKGLEWVAFISSGSTSIYYANTVKGRFTISRDNPKNTLFLQMTSLRSEDTAMYYCARDGYPTGGAMDYWGQGTSVTVSS
VL: DIKMTQSPSSMYASLGERVTITCKASQDIYNYLSWFQLKPGKSPRPLIYRANILVSGVPSKFSGSGSGQDYSLTINSLEYEDLGIYYCLQFDAFPFTFGSGTKLEIK
notes: Murine mAb
[4]
  Kd: 1.4 nM
  koff: 0.00157 s⁻¹
  kon: 1.14e+06 M⁻¹ s⁻¹
[1]
  binding result: no binding
[10]
  Kd: 1.1 nM
[11]
  EC50: 0.5 nM
[3]
  EC50: 0.56 nM
  Max MFI: 217 MFI
[12]
  binding result: no binding

B4: AB0147 TriNKET (other)
chain: QLQLQESGPGLVKPSETLSLTCTVSGFSLTNYGLHWIRQPPGKCLEWIGVILSGGWTDYNPSLKSRVTISKDTSKNQFSLKLSSVQAADTAVYYCAKGDYGDALDYWGQGTLVTVSSGGGGSGGGGSGGGGSGGGGSDIQMTQSPSSLSASVGDRVTITCHASQNINFWLSWYQQKPGKAPKLLIYEASNLHTGVPSRFSGSGSGTRFTLTISSLQPEDIATYYCQQSHSYPLTFGCGTKLEIKGSDKTHTCPPCPAPELLGGPSVFLFPPKPKDTLMISRTPEVTCVVVDVSHEDPEVKFNWYVDGVEVHNAKTKPREEQYNSTYRVVSVLTVLHQDWLNGKEYKCKVSNKALPAPIEKTISKAKGQPREPRVYTLPPCRDELTKNQVSLTCLVKGFYPSDIAVEWESNGQPENNYKTTPPVLVSDGSFTLYSKLTVDKSRWQQGNVFSCSVMHEALHNHYTQKSLSLSPG
heavy: EVQLVESGGGLVKPGGSLRLSCAASGFTFSSYSMNWVRQAPGKGLEWVSSISSSSSYIYYADSVKGRFTISRDNAKNSLYLQMNSLRAEDTAVYYCARGAPIGAAAGWFDPWGQGTLVTVSSASTKGPSVFPLAPSSKSTSGGTAALGCLVKDYFPEPVTVSWNSGALTSGVHTFPAVLQSSGLYSLSSVVTVPSSSLGTQTYICNVNHKPSNTKVDKKVEPKSCDKTHTCPPCPAPELLGGPSVFLFPPKPKDTLMISRTPEVTCVVVDVSHEDPEVKFNWYVDGVEVHNAKTKPREEQYNSTYRVVSVLTVLHQDWLNGKEYKCKVSNKALPAPIEKTISKAKGQPREPQVCTLPPSRDELTENQVSLTCLVKGFYPSDIAVEWESNGQPENNYKTTPPVLDSDGSFFLYSWLTVDKSRWQQGNVFSCSVMHEALHNHYTQKSLSLSPG
light: DIQMTQSPSSVSASVGDRVTITCRASQGISSWLAWYQQKPGKAPKLLIYAASSLQSGVPSRFSGSGSGTDFTLTISSLQPEDFATYYCQQGVSFPRTFGGGTKVEIKRTVAAPSVFIFPPSDEQLKSGTASVVCLLNNFYPREAKVQWKVDNALQSGNSQESVTEQDSKDSTYSLSSTLTLSKADYEKHKVYACEVTHQGLSSPVTKSFNRGEC
[13]
  binding result: binds
